Measured values reported in patent US11167035B2, “Insulin compositions and method of making a composition” (Novo Nordisk A/S, priority 2005, dated 2021).

Assay: SEC on Superose 6 PC, insulin self association
Assay type: physicochemical
Conditions: 600 μM insulin
Protocol: Analysis by size exclusion chromatography (SEC) on a Superose 6 PC column (0.32*30 cm) using isotonic 10 mM tris-buffered saline optionally added 2 mM phenol at 37° C. and pH 7.3, injection volume of 20 μL, flow of 0.05 mL/min and run time 130 min. First reference of Blue dextran (>>5 MDa, KAV 0.0), Thyroglobulin (669 kDa, KAV 0.28), Ferritin (440 kDa, KAV 0.39), Ovalbumin (44.5 kDa, KAV 0.56), Ribonuclease (13.7 kDa, KAV 0.69) and a second reference of Albumin (66 kDa, KAV 0.53), Co(III)insulin-hexamer (35 kDa, KAV 0.61), and monomeric insulin X2 (6 kDa, KAV 0.73). Retention time of blue dextran was 17.9 min (to) and 0.74 min without column (td), and retention time of albumin (HSA) was about 34.1 min, KAV=(t−t0)/(V/f+td−t0) with
KAV area peak1 is measured from KAV=0 to KAV=0.46 (32 min) as relative area % of total area for KAV<0.46 corresponding to self association larger than albumin. For KAV peak 1 about 0.56 (albumin size) integration cut is between albumin size and insulin hexamer size.
For SEC method without phenol in eluent peak1 contain associated forms larger than albumin and peak2 contain dihexameric, hexameric, dimeric and monomeric forms of insulin.
For SEC method including 2 mM phenol in the eluent peak1 contain dihexameric and other larger forms of insulin and peak2 contain hexameric, dimeric and monomeric forms of insulin.
The formulations were studied after storage 2 week at 37C compared to storage at 5C by the SEC method described in example 4 using an eluent with 2 mM phenol. Reference formulations without citrate at 3, 5 and 6 Zn/6ins.deriv. were included.

For “B29Nε-(4-{[(2-Carboxy-ethyl)-(14-carboxy-tetradecanoyl)-amino]-methyl}-benzoyl) desB30 human insulin”, the “Kav 2 Zn peak 1” value (2 zinc/hexamer) was 0.09, the “Relative area % peak 1” value (2 zinc/hexamer) was 55% and the “Kav 6 Zn peak 1” value (6 zinc/hexamer) was 0.00. For the same substance, the “Relative area % peak 1” value (6 zinc/hexamer) was 96%.

For “B29Nε-(2-{[(2-Carboxy-ethyl)-(15-carboxy-pentadecanoyl)-amino]-methyl}-benzoyl) desB30 human insulin”, the “Kav 2 Zn peak 1” value (2 zinc/hexamer) was 0.16, the “Relative area % peak 1” value (2 zinc/hexamer) was 54% and the “Kav 6 Zn peak 1” value (6 zinc/hexamer) was 0.03. For the same substance, the “Relative area % peak 1” value (6 zinc/hexamer) was 93%.

In the case of “B29Nε-[(5-{[(2-Carboxy-ethyl)-(15-carboxy-pentadecanoyl)-amino]-methyl}-furan-2-carbonyl) desB30 human insulin”, the “Kav 2 Zn peak 1” value (2 zinc/hexamer) is reported as 0.02, the “Relative area % peak 1” value (2 zinc/hexamer) is reported as 81% and the “Kav 6 Zn peak 1” value (6 zinc/hexamer) is reported as 0.03. For the same substance, the “Relative area % peak 1” value (6 zinc/hexamer) was 96%.

For “B29Nε-hexadecandioyl-gamma-Glu-(3-(2-{2-[2-(2-amino-ethoxy)-ethoxy]-ethoxy}-ethoxy)-propionyl desB30 human insulin”, the “Kav 2 Zn peak 1” value (2 zinc/hexamer) was 0.09, the “Relative area % peak 1” value (2 zinc/hexamer) was 79% and the “Kav 6 Zn peak 1” value (6 zinc/hexamer) was 0.06. For the same substance, the “Relative area % peak 1” value (6 zinc/hexamer) was 89%.

For “B29Nε-(4-{[(2-Carboxy-ethyl)-(15-carboxy-pentadecanoyl)-amino]-methyl}-benzoyl) desB30 human insulin”, the “Kav 2 Zn peak 1” value (2 zinc/hexamer) was 0.01, the “Relative area % peak 1” value (2 zinc/hexamer) was 84% and the “Kav 6 Zn peak 1” value (6 zinc/hexamer) was 0.00. The “Relative area % peak 1” value (6 zinc/hexamer) was 98%.
